The values below come from patent publication US20200179497A1.

This experiment concerns the target IVIg (Octagam). Put plainly: cell-based or functional assay.

B1: pCART204 (enzyme)
chain: MDDYQRNATEAYAKEVPHQITSVWTKGVTPPEQFRYNNEDVIHAPYLAHQGWYDITKAFDGKDNLLCGAATAGNMLHWWFDQNKTEIEAYLSKHPEKQKIIFNNQELFDLKAAIDTKDSQTNSQLFNYFRDKAFPNLSARQLGVMPDLVLDMFINGYYLNVFKTQSTDVNRPYQDKDKRGGIFDAVFTRGDQTTLLTARHDLKNKGLNDISTIIKQELTEGRALALSHTYANVSISHVINLWGADFNAEGNLEAIYVTDSDANASIGMKKYFVGINAHGHVAISAKKIEGENIGAQVLGLFTLSSGKDIWQKLSGGGHHHHHH
As for B1, the enzyme concentration giving an intense scIgG band on SDS-PAGE came out at 0.94 ng/mL.

B2: pCART202 (enzyme)
chain: MDDYQRNATEAYAKEVPHQITSVWTKGVTPLTPEQFTQGEDVIHAPYLAHQGWYDITKAFDGKDNLLCGAATAGNMLHWWFDQNKTEIEAYLSKHPEKQKIIFNNQELFDLKAAIDTKDSQTNSQLFNYFRDKAFPNLSARQLGVMPDLVLDMFINGYYLNVFKTQSTDVNRPYQDKDKRGGIFDAVFTRGDQTTLLTARHDLKNKGLNDISTIIKQELTEGRALALSHTYANVSISHVINLWGADFNAEGNLEAIYVTDSDANASIGMKKYFVGINAHGHVAISAKKIEGENIGAQVLGLFTLSSGKDIWQKLSGGGHHHHHH
B2 had an enzyme concentration giving an intense scIgG band on SDS-PAGE of 0.94 ng/mL.

B3: pCART229 (enzyme)
chain: MDDYQRNATEAYAKEVPHQITSVWTKGVTPPEQFTQGEDVIHAPYLAHQGWYDITKAFDGKDNLLCGAATAGNMLHWWFDQNKTEIEAYLSKHPEKQKIIFRNQELFDLKAAIDTKDSQTNSQLFNYFRDKAFPNLSARQLGVMPDLVLDMFINGYYLNVFKTQSTDVNRPYQDKDKRGGIFDAVFTRGNQTTLLTARHDLKNKGLNDISTIIKQELTEGRALALSHTYANVSISHVINLWGADFNAEGNLEAIYVTDSDANASIGMKKYFVGINAHGHVAISAKKIEGENIGAQVLGLFTLSSGKDIWQKLSGGGHHHHHH
The molecule B3 came in with a Conc. of enzyme, 1st IgG heavy chain, IgG to scIgG (gel) of 1900 ng/mL and a Conc. of enzyme, 2nd IgG heavy chain, scIgG to F(ab')2 (gel) of 7500 ng/mL.

B4: pCART210 (enzyme)
chain: MDDYQRNATEAYAKEVPHQITSVWTKGVTPPEQFTQGEDVIHAPYLANQGWYDITKAFDGKDNLLCGAATAGNMLHWWFDQNKTEIEAYLSKHPEKQKIIFRNQELFDLKEAIRTKDSQTNSQLFEYFRDKAFPYLSARQLGVMPDLVLDMFINGYYLNVFKTQSTDVKRPYQDKDKRGGIFDAVFTRGNQTTLLTARHDLKNKGLNDISTIIKEELTKGRALALSHTYANVSISHVINLWGADFNAEGNLEAIYVTDSDANASIGMKKYFVGINKHGHVAISAKKIEGENIGAQVLGLFTLSSGKDIWQKLNGGGHHHHHH
Regarding B4, the enzyme concentration giving mainly scIgG on SDS-PAGE was found to be 0.9 ng/mL.

B5: pCART203 (enzyme)
chain: MDDYQRNATEAYAKEVPHQITSVWTKGVTPPEQFTQGEDVIHAPYLAHQGWYDITKAFDGKDNLLCGAATAGNMLHWWFDQNKTEIEAYLSKHPEKQKIIFNNQELFDLKAAIDTKDSQTNSQLFNYFRDKAFPNLSARQLGVMPDLVLDMFINGYYLNVFKTQSTDVNRPYQDKDKRGGIFDAVFTRGDQTTLLTARHDLKNKGLNDISTIIKQELTEGRALALSHTYANVSISHVINLWGADFNAEGNLEAIYVTDSDANASIGMKKYFVGINAHGHVAISAKKIEGENIGAQVLGLFTLSSGKDIWQKLSGGGHHHHHH
The molecule B5 showed an enzyme concentration giving an intense scIgG band on SDS-PAGE of 0.94 ng/mL and an enzyme concentration giving mainly scIgG on SDS-PAGE of 0.9 ng/mL.

B6: pCART208 (enzyme)
chain: MDDYQRNATEAYAKEVPHQITSVWTKGVTPPEQFTQGEDVIHAPYLAHQGWYDITKAFDGKDNLLCGAATAGNMLHWWFDQNKTEIEAYLSKHPEKQKIIIRNQELFDLKAAIDTKDSQTNSQLFNYFRDKAFPNLSARQLGVMPDLVLDMFINGYYLNVFKTQSTDVNRPYQDKDKRGGIFDAVFTRGDQTTLLTARHDLKNKGLNDISTIIKQELTEGRALALSHTYANVSISHVINLWGADFNAEGNLEAIYVTDSDANASIGMKKYFVGINAHGHVAISAKKIEGENIGAQVLGLFTLSSGKDIWQKLSGGGHHHHHH
As to B6, the enzyme concentration giving a dominating F(ab')2 band on SDS-PAGE was found to be 1.9 ng/mL and the enzyme concentration giving mainly scIgG on SDS-PAGE was 0.5 ng/mL.
